Consider one molecule from publication PMC12229552 (Nature Communications, 2025).

In the experiment the target is GST-tagged human EZH2 (human, UniProt Q15910-2 1-751). In words: pull-down.

B1: 6×His-tagged human DDX1 (natural protein, UniProt Q92499-1 1-740, looked up)
chain: MAAFSEMGVMPEIAQAVEEMDWLLPTDIQAESIPLILGGGDVLMAAETGSGKTGAFSIPVIQIVYETLKDQQEGKKGKTTIKTGASVLNKWQMNPYDRGSAFAIGSDGLCCQSREVKEWHGCRATKGLMKGKHYYEVSCHDQGLCRVGWSTMQASLDLGTDKFGFGFGGTGKKSHNKQFDNYGEEFTMHDTIGCYLDIDKGHVKFSKNGKDLGLAFEIPPHMKNQALFPACVLKNAELKFNFGEEEFKFPPKDGFVALSKAPDGYIVKSQHSGNAQVTQTKFLPNAPKALIVEPSRELAEQTLNNIKQFKKYIDNPKLRELLIIGGVAARDQLSVLENGVDIVVGTPGRLDDLVSTGKLNLSQVRFLVLDEADGLLSQGYSDFINRMHNQIPQVTSDGKRLQVIVCSATLHSFDVKKLSEKIMHFPTWVDLKGEDSVPDTVHHVVVPVNPKTDRLWERLGKSHIRTDDVHAKDNTRPGANSPEMWSEAIKILKGEYAVRAIKEHKMDQAIIFCRTKIDCDNLEQYFIQQGGGPDKKGHQFSCVCLHGDRKPHERKQNLERFKKGDVRFLICTDVAARGIDIHGVPYVINVTLPDEKQNYVHRIGRVGRAERMGLAISLVATEKEKVWYHVCSSRGKGCYNTRLKEDGGCTIWYNEMQLLSEIEEHLNCTISQVEPDIKVPVDEFDGKVTYGQKRAAGGGSYKGHVDILAPTVQELAALEKEAQTSFLHLGYLPNQLFRTF
Consider B1, for which the binding result is on record as “binds”.
